From patent publication US20190153119A1

Legend:
[1] = target: TF on A431 cells (human) (UniProt P13726); assay: flow; details: Fc fusion
[2] = target: TF on A431 cells (human) (UniProt P13726); assay: flow; details: Fc fusion; remark: listed apart in the source

Chain of UniProt P13726 (P13726 33-295): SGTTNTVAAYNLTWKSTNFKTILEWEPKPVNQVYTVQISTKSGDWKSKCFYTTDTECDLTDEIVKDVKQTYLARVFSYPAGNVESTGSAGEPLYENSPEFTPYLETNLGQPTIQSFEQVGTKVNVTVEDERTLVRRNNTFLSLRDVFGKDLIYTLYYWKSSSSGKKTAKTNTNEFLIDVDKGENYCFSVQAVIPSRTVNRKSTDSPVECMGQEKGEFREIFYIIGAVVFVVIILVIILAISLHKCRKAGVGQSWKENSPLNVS

2-armed ICON1 [Lot 10.1.1] was tested, and the EC50 [1] was 15 nM.

ICON1_BHK was tested, and the EC50 [2] was 3.59 nM and the EC50 [1] was 2.5 nM.

ICON1_CHO gave an EC50 [1] of 12.9 nM.
